According to the supplement of paper PMC10126150:
± gives the standard deviation of the averaged measurements.

Test system: ATP
Assay: switch fluorescence ratio, 500 uM ATP over buffer (Cy3 cluster intensity, sum of 5 cycles each) (fold (ratio)); higher = stronger signal-on switching upon ATP binding; sequences stand for … in TCGTCGGCAGCGTCAGATGTGTATAAGAGACAGTTTTTTTTTTTTTTTTTTTTTTTTT…TC
Details: aptamer strand: ATP DNA aptamer (quencher-CACCTGGGGGAGTATTGCGGAGGAAGG + anchor), 100 nM annealed; ATP concentration: 500 uM
Method in brief: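 Between each of five buffer/ATP cycles, the flow-cell was stripped with NaOH and re-annealed. Each cycle imaged Cy3-labelled switching-strand clusters, annealed to 100 nM quencher-labelled ATP aptamer on a modified Illumina MiSeq flow-cell, first in selection buffer and then after 15 min with 500 uM ATP at 22 °C. The fluorescence ratio is summed target-cycle over summed buffer-cycle Cy3 intensity per cluster, averaged per switch-domain sequence, with clusters outside 100-1000 RFU excluded.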
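Further: ATP exposure 15 min at 22 °C before imaging.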

| Sequence | switch fluorescence ratio |
| --- | --- |
| AGTGGGTATA | 1.01 ± 0.02 |
| AGTGGGTGGG | 0.9921 ± 0.0049 |
| AGTGGGTTTT | 0.988 ± 0.043 |
| AGTGGTGGCG | 0.9 ± 0.082 |
| AGTGTAAGCC | 0.9622 ± 0.0067 |
| AGTGTACCCA | 1.077 ± 0.01 |
| AGTGTGCATG | 1.03 ± 0.013 |
| AGTGTGCTGG | 1.01 ± 0.043 |
| AGTGTTCGGG | 1 ± 0.043 |
| AGTGTTGCAG | 0.98 ± 0.048 |
| AGTGTTTGG | 0.997 ± 0.02 |
| AGTTAAAGCT | 1.151 ± 0.0063 |
| AGTTAACAGC | 0.959 ± 0.04 |
| AGTTAACTCA | 1.013 ± 0.0056 |
| AGTTAAGGGT | 0.9925 ± 0.0071 |
| AGTTAATAAT | 1.01 ± 0.032 |
| AGTTAATTTC | 0.989 ± 0.03 |
| AGTTAATTTT | 1.0014 ± 0.0007 |
| AGTTACAGTC | 1.05 ± 0.073 |
| AGTTAGAAAT | 1.02 ± 0.03 |
| AGTTAGGACA | 1 ± 0.031 |
| AGTTAGGCCT | 1.02 ± 0.039 |
| AGTTAGGTTA | 1 ± 0.014 |
| AGTTAGTTCG | 0.969 ± 0.043 |
| AGTTATACGG | 0.995 ± 0.032 |

| Sequence | switch fluorescence ratio |
| --- | --- |
| AGTTATACGT | 1.03 ± 0.048 |
| AGTTATCCGG | 0.97 ± 0.044 |
| AGTTATGCAC | 1.024 ± 0.0083 |
| AGTTATGTTA | 1 ± 0.022 |
| AGTTCAATT | 0.9971 ± 0.0032 |
| AGTTCACTGG | 0.979 ± 0.02 |
| AGTTCATTT | 0.999 ± 0.019 |
| AGTTCGTCGT | 0.983 ± 0.015 |
| AGTTCGTGGG | 0.973 ± 0.013 |
| AGTTCTACAT | 1.01 ± 0.039 |
| AGTTCTAGGT | 0.986 ± 0.018 |
| AGTTCTATTT | 1.01 ± 0.021 |
| AGTTGAAGTT | 1.02 ± 0.039 |
| AGTTGAATGT | 0.9647 ± 0.0063 |
| AGTTGAGCTT | 0.987 ± 0.013 |
| AGTTGAGGGC | 0.98 ± 0.047 |
| AGTTGCGATG | 0.985 ± 0.014 |
| AGTTGCGGTC | 0.9516 ± 0.0041 |
| AGTTGCGTCC | 1.01 ± 0.026 |
| AGTTGCTTTT | 0.993 ± 0.036 |
| AGTTGGATGT | 0.977 ± 0.012 |
| AGTTGGGAAC | 1.01 ± 0.015 |
| AGTTGGGCGG | 1.02 ± 0.021 |
| AGTTGGGGAG | 0.9933 ± 0.0023 |
| AGTTGGGGGG | 0.986 ± 0.01 |

| Sequence | switch fluorescence ratio |
| --- | --- |
| AGTTGGGTGC | 0.99 ± 0.018 |
| AGTTGGTAGC | 1.01 ± 0.011 |
| AGTTGTATGT | 0.951 ± 0.037 |
| AGTTGTGAGG | 1.01 ± 0.026 |
| AGTTGTGCAG | 1.02 ± 0.062 |
| AGTTGTGCCT | 1.015 ± 0.0036 |
| AGTTGTGGGG | 0.995 ± 0.032 |
| AGTTGTTGGG | 0.998 ± 0.013 |
| AGTTGTTTAG | 1.01 ± 0.012 |
| AGTTTAATGT | 1 ± 0.027 |
| AGTTTACATT | 1.02 ± 0.026 |
| AGTTTATACT | 1.03 ± 0.0032 |
| AGTTTATTAT | 1.02 ± 0.015 |
| AGTTTCAGGT | 1.005 ± 0.006 |
| AGTTTCTGAG | 1.01 ± 0.056 |
| AGTTTCTTTT | 0.994 ± 0.0026 |
| AGTTTGAGGT | 0.995 ± 0.023 |
| AGTTTGATAG | 0.998 ± 0.017 |
| AGTTTGATGA | 0.989 ± 0.028 |
| AGTTTGGCGG | 0.923 ± 0.084 |
| AGTTTGGCGT | 1.01 ± 0.041 |
| AGTTTGGGAG | 0.992 ± 0.021 |
| AGTTTGGGGT | 1.01 ± 0.029 |
| AGTTTGGTCC | 0.997 ± 0.035 |
| AGTTTGGTCT | 0.984 ± 0.034 |

| Sequence | switch fluorescence ratio |
| --- | --- |
| AGTTTGGTTG | 0.991 ± 0.053 |
| AGTTTGTAGT | 1 ± 0.011 |
| AGTTTGTTGG | 0.989 ± 0.035 |
| AGTTTGTTGT | 1.06 ± 0.095 |
| AGTTTGTTTG | 1.006 ± 0.009 |
| AGTTTTAAGC | 1.01 ± 0.043 |
| AGTTTTAGTC | 1.01 ± 0.017 |
| AGTTTTCCCT | 1.01 ± 0.015 |
| AGTTTTGAGA | 0.983 ± 0.022 |
| AGTTTTGATG | 0.9784 ± 0.0044 |
| AGTTTTTGAT | 0.9692 ± 0.0068 |
| AGTTTTTGGT | 0.97 ± 0.028 |
| AGTTTTTTGC | 0.908 ± 0.025 |
| AGTTTTTTGT | 0.979 ± 0.042 |
| ATAAAACAAG | 0.99 ± 0.027 |
| ATAAAAGAAT | 0.998 ± 0.0085 |
| ATAAAATATT | 0.998 ± 0.022 |
| ATAAACCTAA | 1.05 ± 0.024 |
| ATAAAGATAG | 1.0006 ± 7.5e-05 |
| ATAAAGGGCG | 1.029 ± 0.01 |
| ATAAAGTGTG | 1.01 ± 0.02 |
| ATAAAGTTGA | 1 ± 0.034 |
| ATAAATAAAA | 0.984 ± 0.036 |
| ATAAATTGCG | 0.9931 ± 0.0086 |
| ATAACAAGGG | 1.04 ± 0.089 |

| Sequence | switch fluorescence ratio |
| --- | --- |
| ATAACACAGG | 1.279 ± 0.0016 |
| ATAACCCCGA | 1.088 ± 0.0075 |
| ATAACCGCGG | 0.994 ± 0.025 |
| ATAACGAATG | 1.01 ± 0.024 |
| ATAACGCGGT | 0.9967 ± 0.0047 |
| ATAACTGCGG | 1.02 ± 0.012 |
| ATAAGAAGAT | 1.022 ± 0.0014 |
| ATAAGCACTT | 1.22 ± 0.027 |
| ATAAGCGCGT | 0.999 ± 0.017 |
| ATAAGGCTAA | 0.982 ± 0.016 |
| ATAAGGCTTG | 0.968 ± 0.03 |
| ATAAGGGAGT | 0.9909 ± 0.0033 |
| ATAAGGGCGA | 0.985 ± 0.028 |
| ATAAGGGCGT | 1.001 ± 0.0065 |
| ATAAGGTCTA | 0.971 ± 0.015 |
| ATAAGGTTGT | 0.977 ± 0.025 |
| ATAAGTAAAT | 1 ± 0.018 |
| ATAAGTCCGA | 0.99 ± 0.026 |
| ATAAGTGCTG | 0.991 ± 0.017 |
| ATAATACCTT | 1.15 ± 0.094 |
| ATAATATGTT | 0.9911 ± 0.004 |
| ATAATCAAGG | 1.01 ± 0.032 |
| ATAATCGATT | 0.978 ± 0.011 |
| ATAATCTATC | 0.995 ± 0.045 |
| ATAATCTGCG | 1.01 ± 0.012 |

| Sequence | switch fluorescence ratio |
| --- | --- |
| ATAATCTGTG | 0.986 ± 0.0023 |
| ATAATGACGT | 1.01 ± 0.049 |
| ATAATGGTGT | 1.03 ± 0.029 |
| ATAATTAACG | 0.986 ± 0.034 |
| ATAATTAAGA | 0.992 ± 0.014 |
| ATAATTAGTA | 0.9455 ± 0.0079 |
| ATAATTCGGT | 0.985 ± 0.025 |
| ATAATTTAGT | 0.982 ± 0.028 |
| ATAATTTTAC | 1.07 ± 0.041 |
| ATAATTTTCA | 1.01 ± 0.03 |
| ATAATTTTGG | 0.973 ± 0.017 |
| ATACAAGGCT | 1.02 ± 0.03 |
| ATACACATAG | 1.04 ± 0.014 |
| ATACGAGAAT | 1 ± 0.023 |
| ATACGAGGGC | 1.01 ± 0.028 |
| ATACGAGTGC | 1.01 ± 0.012 |
| ATACGATATT | 1.142 ± 0.0033 |
| ATACGATTGG | 0.9674 ± 0.0044 |
| ATACGCAGCG | 0.998 ± 0.01 |
| ATACGGATGG | 0.984 ± 0.033 |
| ATACGGGAGT | 1 ± 0.0018 |
| ATACGGGATT | 1.044 ± 0.0064 |
| ATACGGGGTA | 1.03 ± 0.054 |
| ATACGGTAAT | 1.16 ± 0.052 |
| ATACGTCGGC | 0.984 ± 0.046 |

| Sequence | switch fluorescence ratio |
| --- | --- |
| ATACGTTCGG | 1.01 ± 0.0015 |
| ATACTCGCGT | 1.014 ± 0.01 |
| ATACTCTTAT | 1.03 ± 0.04 |
| ATACTGCTCT | 0.968 ± 0.059 |
| ATACTGGAAA | 1.011 ± 0.01 |
| ATACTGGGAT | 1.031 ± 0.0015 |
| ATACTTAAGG | 1.016 ± 0.0013 |
| ATACTTATTT | 1.03 ± 0.018 |
| ATACTTTAAA | 1.17 ± 0.1 |
| ATACTTTTGC | 0.952 ± 0.034 |
| ATAGAAAAAT | 1.003 ± 0.0098 |
| ATAGAAGGGG | 1.08 ± 0.14 |
| ATAGAATAGG | 0.9867 ± 0.0065 |
| ATAGAATTTA | 0.956 ± 0.024 |
| ATAGACGGAT | 0.987 ± 0.06 |
| ATAGAGACTA | 1.006 ± 0.0078 |
| ATAGAGGCTA | 0.992 ± 0.025 |
| ATAGAGTTTG | 0.976 ± 0.0014 |
| ATAGATCATC | 1.05 ± 0.02 |
| ATAGATGAGG | 1.007 ± 0.0046 |
| ATAGATTAGG | 0.9854 ± 0.0092 |
| ATAGCAGGGT | 1 ± 0.012 |
| ATAGCAGGTG | 2.9 ± 1.1 |
| ATAGCCCGCT | 1.03 ± 0.0014 |
| ATAGCCGTGC | 1.017 ± 0.0054 |

| Sequence | switch fluorescence ratio |
| --- | --- |
| ATAGCGGTCG | 1.01 ± 0.07 |
| ATAGCTGTTA | 0.978 ± 0.05 |
| ATAGCTTGGG | 0.985 ± 0.017 |
| ATAGGAACGT | 1.08 ± 0.1 |
| ATAGGAATTT | 0.993 ± 0.021 |
| ATAGGACAAC | 1.038 ± 0.0081 |
| ATAGGACGGG | 0.967 ± 0.028 |
| ATAGGAGTGC | 1.01 ± 0.023 |
| ATAGGATATA | 1.03 ± 0.018 |
| ATAGGATCAC | 1.02 ± 0.028 |
| ATAGGATCAT | 0.975 ± 0.03 |
| ATAGGATCGC | 0.99 ± 0.039 |
| ATAGGATTTA | 0.989 ± 0.013 |
| ATAGGCATTT | 1.03 ± 0.013 |
| ATAGGGAAGT | 1 ± 0.017 |
| ATAGGGAATG | 0.9986 ± 0.007 |
| ATAGGGAGGG | 1.012 ± 0.0048 |
| ATAGGGCACA | 1.08 ± 0.015 |
| ATAGGGGACG | 1.01 ± 0.049 |
| ATAGGGGTGG | 1.03 ± 0.018 |
| ATAGGGTGCG | 1 ± 0.03 |
| ATAGGTAGGT | 0.996 ± 0.004 |
| ATAGGTAGTC | 0.996 ± 0.02 |
| ATAGGTCCCG | 1 ± 0.017 |
| ATAGGTGCGG | 0.985 ± 0.021 |
